Measurements taken from PMC9482650, “Quantitative fragmentomics allow affinity mapping of interactomes” (Nature Communications, 2022).
Each block holds one binder with its values, some of them ahead of it.

What was measured:
Assay in all cases: holdup assay
Parameters in all cases: key: below the threshold = too weak to quantify, mostly under pKd 3.1 to 4
[1] = molecular target: Inadl_10, Q8NI35
[2] = molecular target: Inadl_5, Q8NI35
[3] = molecular target: T1, CARD11, Q9BXL7
T1 sequence (Q9BXL7 662-765, limits assumed, looked up): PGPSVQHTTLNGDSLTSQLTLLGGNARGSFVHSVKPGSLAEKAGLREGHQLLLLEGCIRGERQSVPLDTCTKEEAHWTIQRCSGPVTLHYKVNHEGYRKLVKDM

[4] = molecular target: SCRIB_1, Q14160
Chain of SCRIB_1, Q14160 (Q14160 718-814): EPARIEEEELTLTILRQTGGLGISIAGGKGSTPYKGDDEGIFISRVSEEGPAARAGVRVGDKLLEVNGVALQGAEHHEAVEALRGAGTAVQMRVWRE

[5] = molecular target: T2, APBA2_1, Q99767
T2 sequence (Q99767 563-664, limits assumed, looked up): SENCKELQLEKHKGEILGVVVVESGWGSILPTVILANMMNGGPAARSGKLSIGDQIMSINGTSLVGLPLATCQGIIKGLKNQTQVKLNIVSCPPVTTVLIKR

[6] = molecular target: T3, SNTB1, Q13884
T3 sequence (Q13884 107-205, limits assumed, looked up): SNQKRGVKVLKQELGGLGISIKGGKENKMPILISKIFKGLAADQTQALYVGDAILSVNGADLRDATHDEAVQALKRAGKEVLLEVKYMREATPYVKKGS

[7] = molecular target: TJP1_3, Q07157
Chain of TJP1_3, Q07157 (Q07157 416-512): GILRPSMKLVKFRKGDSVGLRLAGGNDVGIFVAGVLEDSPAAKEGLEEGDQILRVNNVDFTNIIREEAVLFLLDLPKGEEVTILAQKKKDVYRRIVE

[8] = molecular target: DLG4_2, P78352
Chain of DLG4_2, P78352 (P78352 155-259): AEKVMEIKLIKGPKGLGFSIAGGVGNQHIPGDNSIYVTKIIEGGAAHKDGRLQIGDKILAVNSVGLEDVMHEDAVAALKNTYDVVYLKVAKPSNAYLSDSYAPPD

[9] = molecular target: HTRA1, Q92743
Chain of HTRA1, Q92743 (Q92743 360-477): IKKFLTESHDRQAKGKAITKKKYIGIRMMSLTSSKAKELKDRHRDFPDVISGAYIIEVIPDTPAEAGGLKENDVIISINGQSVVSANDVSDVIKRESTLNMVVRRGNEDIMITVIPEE

[10] = molecular target: T4, FRMPD1, Q5SYB0
T4 sequence (Q5SYB0 52-145, limits assumed, looked up): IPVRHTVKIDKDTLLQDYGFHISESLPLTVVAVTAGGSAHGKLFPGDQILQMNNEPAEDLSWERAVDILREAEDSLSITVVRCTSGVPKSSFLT

[11] = molecular target: FRMPD2_1, Q68DX3
Chain of FRMPD2_1, Q68DX3 (Q68DX3 770-861): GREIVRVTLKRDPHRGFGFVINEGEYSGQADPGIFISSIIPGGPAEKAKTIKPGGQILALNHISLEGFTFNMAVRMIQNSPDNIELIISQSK

[12] = molecular target: FRMPD2_3, Q68DX3
Chain of FRMPD2_3, Q68DX3 (Q68DX3 1073-1166): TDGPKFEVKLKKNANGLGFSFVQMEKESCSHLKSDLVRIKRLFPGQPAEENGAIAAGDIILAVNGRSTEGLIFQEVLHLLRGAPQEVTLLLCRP

[13] = molecular target: T5, NHERF3_4, Q5T2W1
T5 sequence (Q5T2W1 373-468, limits assumed, looked up): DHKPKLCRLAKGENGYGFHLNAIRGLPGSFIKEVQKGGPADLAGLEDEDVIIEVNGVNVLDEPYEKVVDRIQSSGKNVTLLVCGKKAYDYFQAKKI

[14] = molecular target: DLG1_1, Q12959
[15] = molecular target: PARD3_3, Q8TEW0
Chain of PARD3_3, Q8TEW0 (Q8TEW0 582-685): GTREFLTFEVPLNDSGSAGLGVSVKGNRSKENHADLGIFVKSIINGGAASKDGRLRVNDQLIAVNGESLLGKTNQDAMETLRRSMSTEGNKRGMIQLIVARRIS

[16] = molecular target: T6, HTRA4, P83105
T6 sequence (P83105 378-476, limits assumed, looked up): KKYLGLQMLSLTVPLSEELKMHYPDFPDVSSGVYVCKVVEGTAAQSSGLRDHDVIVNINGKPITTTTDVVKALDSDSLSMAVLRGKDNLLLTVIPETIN

[17] = molecular target: T7, PDZD2_2, O15018
T7 sequence (O15018 329-429, limits assumed, looked up): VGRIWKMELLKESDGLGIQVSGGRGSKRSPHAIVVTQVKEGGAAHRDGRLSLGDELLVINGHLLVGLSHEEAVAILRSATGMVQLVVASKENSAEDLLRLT

[18] = molecular target: LDB3, O75112
Chain of LDB3, O75112 (O75112 1-94): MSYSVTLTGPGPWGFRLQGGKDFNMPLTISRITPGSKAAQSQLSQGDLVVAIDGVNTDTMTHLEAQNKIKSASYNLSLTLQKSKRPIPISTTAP

[19] = molecular target: NOS1, P29475
Chain of NOS1, P29475 (P29475 9-101): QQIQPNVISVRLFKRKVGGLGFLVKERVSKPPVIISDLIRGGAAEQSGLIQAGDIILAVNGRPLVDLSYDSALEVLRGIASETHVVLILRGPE

[20] = molecular target: T8, MPP6, Q9NZW5
T8 sequence (Q9NZW5 125-219, limits assumed, looked up): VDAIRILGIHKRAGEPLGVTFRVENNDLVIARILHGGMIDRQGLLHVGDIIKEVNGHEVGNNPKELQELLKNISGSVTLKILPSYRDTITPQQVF

[21] = molecular target: DLG1_3, Q12959
[22] = molecular target: T9, DLG3_1, Q92796
T9 sequence (Q92796 125-227, limits assumed, looked up): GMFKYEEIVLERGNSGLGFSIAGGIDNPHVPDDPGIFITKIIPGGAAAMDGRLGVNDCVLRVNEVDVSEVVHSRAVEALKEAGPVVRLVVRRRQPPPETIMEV

[23] = molecular target: T10, PARD3B_1, Q8TEW8
T10 sequence (Q8TEW8 196-299, limits assumed, looked up): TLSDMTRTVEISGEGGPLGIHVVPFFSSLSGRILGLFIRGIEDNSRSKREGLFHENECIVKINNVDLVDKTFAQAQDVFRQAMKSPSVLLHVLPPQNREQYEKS

[24] = molecular target: T11, LNX2_3, Q8N448
T11 sequence (Q8N448 463-564, limits assumed, looked up): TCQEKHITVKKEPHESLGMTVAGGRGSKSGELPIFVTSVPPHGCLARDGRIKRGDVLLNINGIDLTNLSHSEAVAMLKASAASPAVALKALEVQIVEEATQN

[25] = molecular target: GRASP, Q7Z6J2
Chain of GRASP, Q7Z6J2 (Q7Z6J2 96-193): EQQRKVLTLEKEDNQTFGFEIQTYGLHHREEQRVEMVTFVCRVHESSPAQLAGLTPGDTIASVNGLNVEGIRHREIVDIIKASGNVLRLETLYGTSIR

[26] = molecular target: T12, LIN7A, O14910
T12 sequence (O14910 103-200, limits assumed, looked up): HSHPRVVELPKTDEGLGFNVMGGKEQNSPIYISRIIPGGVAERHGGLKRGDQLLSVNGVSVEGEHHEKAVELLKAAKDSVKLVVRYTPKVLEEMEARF

[27] = plain residues with an end cap or a label only (N-terminal biotin on a linker: ahx)
[28] = plain residues with an end cap or a label only (N-terminal biotin on a linker: ttds)
[29] = plain residues with an end cap or a label only (N-terminal biotin on a linker: ado-ado)

Chain of Inadl_10, Q8NI35 (Q8NI35 1673-1763): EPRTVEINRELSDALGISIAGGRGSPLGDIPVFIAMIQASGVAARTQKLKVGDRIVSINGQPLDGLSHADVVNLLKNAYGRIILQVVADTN
Chain of Inadl_5, Q8NI35 (Q8NI35 673-780): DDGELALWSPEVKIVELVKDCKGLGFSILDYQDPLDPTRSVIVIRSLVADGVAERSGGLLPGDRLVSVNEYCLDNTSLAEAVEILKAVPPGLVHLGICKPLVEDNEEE

pKd [1, 27]: below the threshold
pKd [2, 27]: below the threshold
pKd [3, 27]: below the threshold
pKd [4, 27]: below the threshold
pKd [5, 27]: below the threshold
pKd [6, 27]: 3.64
pKd [7, 27]: below the threshold
pKd [8, 27]: 4.39
pKd [9, 27]: 4.04
pKd [10, 27]: below the threshold
pKd [11, 27]: below the threshold
pKd [12, 27]: below the threshold
pKd [13, 27]: below the threshold
pKd [14, 27]: 3.72
pKd [15, 27]: below the threshold
pKd [16, 27]: 3.53
pKd [17, 27]: 4.51
pKd [18, 27]: below the threshold
pKd [19, 27]: 3.55
pKd [20, 27]: below the threshold
pKd [21, 27]: below the threshold
pKd [22, 27]: below the threshold
pKd [23, 27]: below the threshold
pKd [24, 27]: below the threshold
pKd [25, 27]: 4.31
pKd [26, 27]: below the threshold
Binder: KDECVIATEV [DLL1, O00548]

pKd [1, 28]: below the threshold
pKd [2, 28]: below the threshold
pKd [3, 28]: below the threshold
pKd [4, 28]: 3.51
pKd [5, 28]: below the threshold
pKd [6, 28]: 3.65
pKd [7, 28]: below the threshold
pKd [8, 28]: 4.42
pKd [9, 28]: below the threshold
pKd [10, 28]: below the threshold
pKd [11, 28]: below the threshold
pKd [12, 28]: below the threshold
pKd [13, 28]: below the threshold
pKd [14, 28]: 3.89
pKd [15, 28]: below the threshold
pKd [16, 28]: below the threshold
pKd [17, 28]: 4.93
pKd [18, 28]: below the threshold
pKd [19, 28]: below the threshold
pKd [20, 28]: below the threshold
pKd [21, 28]: below the threshold
pKd [22, 28]: below the threshold
pKd [23, 28]: below the threshold
pKd [24, 28]: below the threshold
pKd [25, 28]: 3.86
pKd [26, 28]: below the threshold
Binder: KQVVPFSSSV [GDA, Q9Y2T3]

pKd [1, 29]: below the threshold
pKd [2, 29]: below the threshold
pKd [3, 29]: below the threshold
pKd [4, 29]: below the threshold
pKd [5, 29]: below the threshold
pKd [6, 29]: below the threshold
pKd [7, 29]: below the threshold
pKd [8, 29]: below the threshold
pKd [9, 29]: 4.14
pKd [10, 29]: below the threshold
pKd [11, 29]: below the threshold
pKd [12, 29]: below the threshold
pKd [13, 29]: below the threshold
pKd [14, 29]: below the threshold
pKd [15, 29]: below the threshold
pKd [16, 29]: 3.99
pKd [17, 29]: below the threshold
pKd [18, 29]: below the threshold
pKd [19, 29]: below the threshold
pKd [20, 29]: below the threshold
pKd [21, 29]: 3.72
pKd [22, 29]: below the threshold
pKd [23, 29]: 4.1
pKd [24, 29]: below the threshold
pKd [25, 29]: below the threshold
pKd [26, 29]: below the threshold
Binder: PDSYHRRDFW [U2AF2, P26368]
